Assay results: paper PMC9150345
Each block holds one binder with its values, some of them ahead of it.

Experiments:
[1] = molecular target: Antp^AAAA-hTBP pair (VC-Antp YPWM mutant with VN-TBP) as acceptor in BiFC-FRET (Drosophila | human) (UniProt P02833)
[2] = molecular target: AntpΔN-hTBP pair (VC-AntpΔN with VN-TBP) as acceptor in BiFC-FRET (Drosophila | human) (UniProt P02833)
[3] = molecular target: Antp^AAAA, Antp with the YPWM motif substituted by alanines, fused to the C-terminal fragment of Venus (Drosophila), P02833
Chain of Antp^AAAA, Antp with the YPWM motif substituted by alanines, fused to the C-terminal fragment of Venus (Drosophila), P02833 (P02833 whole entry, the tested form may be a part): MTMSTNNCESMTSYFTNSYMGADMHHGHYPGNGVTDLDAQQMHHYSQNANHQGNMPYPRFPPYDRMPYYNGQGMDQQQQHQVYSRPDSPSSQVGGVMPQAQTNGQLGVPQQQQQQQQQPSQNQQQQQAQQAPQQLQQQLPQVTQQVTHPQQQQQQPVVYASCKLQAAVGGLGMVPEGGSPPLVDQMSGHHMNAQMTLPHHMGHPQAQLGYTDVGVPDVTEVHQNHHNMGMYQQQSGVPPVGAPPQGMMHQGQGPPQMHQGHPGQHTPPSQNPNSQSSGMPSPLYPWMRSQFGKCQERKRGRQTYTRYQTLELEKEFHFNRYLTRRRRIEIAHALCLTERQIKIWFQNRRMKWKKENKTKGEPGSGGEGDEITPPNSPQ

[4] = molecular target: Antp^I32A−H36A-hTBP pair (VC-Antp HD helix 2 mutant with VN-TBP) as acceptor in BiFC-FRET (Drosophila | human) (UniProt P20226)
Chain of Antp^I32A−H36A-hTBP pair (VC-Antp HD helix 2 mutant with VN-TBP) as acceptor in BiFC-FRET (Drosophila | human) (P20226 whole entry, looked up, stated change not applied, tested part not stated): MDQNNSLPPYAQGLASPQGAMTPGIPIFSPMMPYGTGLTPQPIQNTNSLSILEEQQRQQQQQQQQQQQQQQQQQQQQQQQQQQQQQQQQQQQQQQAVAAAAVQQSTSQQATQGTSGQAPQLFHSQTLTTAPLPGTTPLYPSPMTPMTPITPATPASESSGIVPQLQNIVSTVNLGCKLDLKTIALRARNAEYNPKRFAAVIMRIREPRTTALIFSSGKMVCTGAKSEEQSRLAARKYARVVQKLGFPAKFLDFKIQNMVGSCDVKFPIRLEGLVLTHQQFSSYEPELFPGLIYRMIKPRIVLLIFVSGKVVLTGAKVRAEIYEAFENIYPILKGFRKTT

Chain of AntpΔN-hTBP pair (VC-AntpΔN with VN-TBP) as acceptor in BiFC-FRET (Drosophila | human) (P02833 270-378, stated change not applied, chain 1 of 2): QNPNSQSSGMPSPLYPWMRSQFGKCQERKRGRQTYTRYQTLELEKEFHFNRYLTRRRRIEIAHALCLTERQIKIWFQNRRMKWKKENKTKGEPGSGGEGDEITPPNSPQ
Chain of AntpΔN-hTBP pair (VC-AntpΔN with VN-TBP) as acceptor in BiFC-FRET (Drosophila | human) (P20226 whole entry, stated change not applied, chain 2 of 2, further chain, the tested form may be a part): as the sequence (P20226 whole entry, looked up, stated change not applied, tested part not stated) above
Chain of Antp^AAAA-hTBP pair (VC-Antp YPWM mutant with VN-TBP) as acceptor in BiFC-FRET (Drosophila | human) (P02833 whole entry, stated change not applied, chain 1 of 2): as the sequence (P02833 whole entry, the tested form may be a part) above
Chain of Antp^AAAA-hTBP pair (VC-Antp YPWM mutant with VN-TBP) as acceptor in BiFC-FRET (Drosophila | human) (P20226 whole entry, stated change not applied, chain 2 of 2, further chain): as the sequence (P20226 whole entry, looked up, stated change not applied, tested part not stated) above

- transactivation on pGLH11 of Antp^AAAA with TBP and Exd, percent of Antp alone (Fig. 5C) [1]: 70%
- transactivation on pGLH11 of AntpΔN with TBP and Exd, percent of Antp alone (Fig. 5C) [2]: 65%
B1: Extradenticle (Exd) (144–376) fused to ECFP (domain or fragment)
chain: DGADNAIEHSDYRAKLAQIRQIYHQELEKYEQACNEFTTHVMNLLREQSRTRPITPKEIERMVQIIHKKFSSIQMQLKQSTCEAVMILRSRFLDARRKRRNFSKQASEILNEYFYSHLSNPYPSEEAKEELARKCGITVSQVSNWFGNKRIRYKKNIGKAQEEANLYAAKKAAGASPYSMAGPPSGTTTPMMSPAPPQDSMGYPMGSGGYDQQQPYDNSMGGYDPNLHQDLSP

- transactivation on pGLH11 of Antp^AAAA with Exd, percent of Antp alone (Fig. 5C) [3]: 97%
B2: Extradenticle (Exd) (144–376) fused to ECFP, P40427 144-376 (domain or fragment)
chain: B1 chain

- transactivation on pGLH11 of Antp^I32A−H36A with TBP and TFIIEβ, percent of Antp alone (Fig. 5B) [4]: 72%
B3: TFIIEβ fused to ECFP (natural protein)
chain: MDPALLREREAFKKRAMATPTVEKKSKPDRPAPPPPSDDSRRKMRPPNAPRLDATTYKTMSGSSQYRFGVLAKIVKFMRTRHQDGDDHPLTIDEILDETNQLDIGQSVKNWLASEALHNNPKVEASPCGTKFSFKPVYKIKDGKTLMRLLKQHDLKGLGGILLDDVQESLPHCEKVLKNRSAEILFVVRPIDKKKILFYNDRTANFSVDDEFQKLWRSATVDAMDDAKIDEYLEKQGIRSMQDHGLKKAIPKRKKAANKKRQFKKPRDNEHLADVLEVYEDNTLTLKGVNPT
